Sequences and labels used below:
B1: Y150-F8-6 (bispecific antibody, human IgG1, kappa)
scFv: QVQLVESGGGVVQPGRSLRLSCAASGFTFSTYAMNWVRQAPGKGLEWVARIRSKYNNYATYYADSVKDRFTISRDDSKNTLYLQMNSLRAEDTAVYYCVRHGNFGNSYVSWFAYWGQGTLVTVSSGGGGSGGGGSGGGGSQTVVTQEPSLTVSPGGTVTLTCRSSTGAVTTSNYANWVQQKPGQAPRGLIGGTNKRAPGVPARFSGSLLGGKAALTLSGVQPEDEAEYYCALWYSNLWVFGGGTKVEIKGGGGSDKTHTCPPCPAPEFEGGPSVFLFPPKPKDTLMISRTPEVTCVVVDVSHEDPEVKFNWYVDGVEVHNAKTKPREEQYNSTYRVVSVLTVLHQDWLNGKEYKCKVSNKALPASIEKTISKAKGQPREPQVCTLPPSRDELTKNQVSLSCAVKGFYPSDIAVEWESNGQPENNYKTTPPVLDSDGSFFLVSKLTVDKSRWQQGNVFSCSVMHEALHNHYTQKSLSLSPGK
heavy: EVQLLESGGGLVQPGGSLRLSCAVSGFTFNSFAMSWVRQAPGKGLEWVSAISGSGGGTYYADSVKGRFTISRDNSKNTLYLQMNSLRAEDTAVYFCAKDKILWFGEPVFDYWGQGTLVTVSSASTKGPSVFPLAPSSKSTSGGTAALGCLVKDYFPEPVTVSWNSGALTSGVHTFPAVLQSSGLYSLSSVVTVPSSSLGTQTYICNVNHKPSNTKVDKKVEPKSCDKTHTCPPCPAPEFEGGPSVFLFPPKPKDTLMISRTPEVTCVVVDVSHEDPEVKFNWYVDGVEVHNAKTKPREEQYNSTYRVVSVLTVLHQDWLNGKEYKCKVSNKALPASIEKTISKAKGQPREPQVYTLPPCRDELTKNQVSLWCLVKGFYPSDIAVEWESNGQPENNYKTTPPVLDSDGSFFLYSKLTVDKSRWQQGNVFSCSVMHEALHNHYTQKSLSLSPGK
light: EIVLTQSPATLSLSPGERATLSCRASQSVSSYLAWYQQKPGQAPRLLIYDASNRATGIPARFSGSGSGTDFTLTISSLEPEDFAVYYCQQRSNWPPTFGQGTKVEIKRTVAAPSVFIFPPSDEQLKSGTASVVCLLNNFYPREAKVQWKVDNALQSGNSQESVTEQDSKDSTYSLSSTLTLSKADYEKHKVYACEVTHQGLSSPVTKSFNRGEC
notes: also called Y150-8-6
B2: Y150-F8-7 (bispecific antibody, human IgG1, kappa, N297A)
scFv: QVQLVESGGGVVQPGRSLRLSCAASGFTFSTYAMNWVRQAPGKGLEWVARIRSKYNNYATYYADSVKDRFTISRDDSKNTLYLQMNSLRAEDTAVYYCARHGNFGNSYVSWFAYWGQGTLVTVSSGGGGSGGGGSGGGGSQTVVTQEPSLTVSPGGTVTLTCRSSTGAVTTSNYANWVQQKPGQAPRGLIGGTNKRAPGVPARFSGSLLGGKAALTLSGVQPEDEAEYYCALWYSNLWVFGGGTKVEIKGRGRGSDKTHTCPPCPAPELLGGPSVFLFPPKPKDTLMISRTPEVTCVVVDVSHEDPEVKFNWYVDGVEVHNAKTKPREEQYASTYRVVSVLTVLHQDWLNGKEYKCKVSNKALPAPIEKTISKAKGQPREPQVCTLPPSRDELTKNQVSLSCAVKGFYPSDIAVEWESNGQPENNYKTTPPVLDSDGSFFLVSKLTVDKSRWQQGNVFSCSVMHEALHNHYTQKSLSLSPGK
heavy: EVQLLESGGGLVQPGGSLRLSCAVSGFTFNSFAMSWVRQAPGKGLEWVSAISGSGGGTYYADSVKGRFTISRDNSKNTLYLQMNSLRAEDTAVYFCAKDKILWFGEPVFDYWGQGTLVTVSSASTKGPSVFPLAPSSKSTSGGTAALGCLVKDYFPEPVTVSWNSGALTSGVHTFPAVLQSSGLYSLSSVVTVPSSSLGTQTYICNVNHKPSNTKVDKKVEPKSCDKTHTCPPCPAPELLGGPSVFLFPPKPKDTLMISRTPEVTCVVVDVSHEDPEVKFNWYVDGVEVHNAKTKPREEQYASTYRVVSVLTVLHQDWLNGKEYKCKVSNKALPAPIEKTISKAKGQPREPQVYTLPPCRDELTKNQVSLWCLVKGFYPSDIAVEWESNGQPENNYKTTPPVLDSDGSFFLYSKLTVDKSRWQQGNVFSCSVMHEALHNHYTQKSLSLSPGK
light: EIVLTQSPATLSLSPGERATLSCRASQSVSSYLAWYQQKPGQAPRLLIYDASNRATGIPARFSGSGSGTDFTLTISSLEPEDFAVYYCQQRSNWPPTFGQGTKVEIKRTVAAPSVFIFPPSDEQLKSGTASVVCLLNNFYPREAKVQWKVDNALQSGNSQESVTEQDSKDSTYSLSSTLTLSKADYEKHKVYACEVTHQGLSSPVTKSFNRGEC
notes: Anti-CD38 (Dara) Fab arm and anti-CD3 scFv (VH2a/VL5)-Fc fusion peptide, CH2 N297A
B3: Y150-F8-1 (bispecific antibody, human IgG1, kappa)
scFv: EVQLVESGGGLVQPKGSLKLSCAASGFTFNTYAMNWVRQAPGKGLEWVARIRSKYNNYATYYADSVKDRFTISRDDSQSILYLQMNNLKTEDTAMYYCVRHGNFGNSYVSWFAYWGQGTLVTVSSGGGGSGGGGSGGGGSQAVVTQESALTTSPGETVTLTCRSSTGAVTTSNYANWVQEKPDHLFTGLIGGTNKRAPGVPARFSGSLIGDKAALTITGAQTEDEAIYFCALWYSNLWVFGGGTKLTVLGDGDGSDKTHTCPPCPAPEFEGGPSVFLFPPKPKDTLMISRTPEVTCVVVDVSHEDPEVKFNWYVDGVEVHNAKTKPREEQYNSTYRVVSVLTVLHQDWLNGKEYKCKVSNKALPASIEKTISKAKGQPREPQVCTLPPSRDELTKNQVSLSCAVKGFYPSDIAVEWESNGQPENNYKTTPPVLDSDGSFFLVSKLTVDKSRWQQGNVFSCSVMHEALHNHYTQKSLSLSPGK
heavy: EVQLLESGGGLVQPGGSLRLSCAVSGFTFNSFAMSWVRQAPGKGLEWVSAISGSGGGTYYADSVKGRFTISRDNSKNTLYLQMNSLRAEDTAVYFCAKDKILWFGEPVFDYWGQGTLVTVSSASTKGPSVFPLAPSSKSTSGGTAALGCLVKDYFPEPVTVSWNSGALTSGVHTFPAVLQSSGLYSLSSVVTVPSSSLGTQTYICNVNHKPSNTKVDKKVEPKSCDKTHTCPPCPAPEFEGGPSVFLFPPKPKDTLMISRTPEVTCVVVDVSHEDPEVKFNWYVDGVEVHNAKTKPREEQYNSTYRVVSVLTVLHQDWLNGKEYKCKVSNKALPASIEKTISKAKGQPREPQVYTLPPCRDELTKNQVSLWCLVKGFYPSDIAVEWESNGQPENNYKTTPPVLDSDGSFFLYSKLTVDKSRWQQGNVFSCSVMHEALHNHYTQKSLSLSPGK
light: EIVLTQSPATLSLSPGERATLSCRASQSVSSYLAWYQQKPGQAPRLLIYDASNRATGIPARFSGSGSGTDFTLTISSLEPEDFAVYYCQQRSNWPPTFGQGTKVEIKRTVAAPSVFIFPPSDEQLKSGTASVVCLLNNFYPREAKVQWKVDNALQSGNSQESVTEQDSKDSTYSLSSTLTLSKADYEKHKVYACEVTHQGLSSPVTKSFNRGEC
notes: Comparative: anti-CD38 (Dara) Fab arm and anti-CD3 scFv (SP34)-Fc fusion peptide, CH2 FES
B4: Y150-F8-2 (bispecific antibody, human IgG1, kappa, N297Q)
scFv: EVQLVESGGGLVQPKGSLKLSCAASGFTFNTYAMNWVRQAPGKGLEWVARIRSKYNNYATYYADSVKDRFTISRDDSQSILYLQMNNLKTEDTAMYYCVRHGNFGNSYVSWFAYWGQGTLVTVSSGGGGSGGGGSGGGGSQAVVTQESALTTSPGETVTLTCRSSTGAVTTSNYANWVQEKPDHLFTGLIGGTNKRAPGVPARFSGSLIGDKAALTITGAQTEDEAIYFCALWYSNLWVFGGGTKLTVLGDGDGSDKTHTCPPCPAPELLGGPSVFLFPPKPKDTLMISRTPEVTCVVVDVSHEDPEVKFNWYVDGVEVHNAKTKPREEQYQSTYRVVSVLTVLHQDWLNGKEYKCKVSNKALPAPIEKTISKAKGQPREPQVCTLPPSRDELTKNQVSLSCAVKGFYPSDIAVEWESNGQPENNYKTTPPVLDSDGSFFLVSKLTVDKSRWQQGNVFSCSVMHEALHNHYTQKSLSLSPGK
heavy: EVQLLESGGGLVQPGGSLRLSCAVSGFTFNSFAMSWVRQAPGKGLEWVSAISGSGGGTYYADSVKGRFTISRDNSKNTLYLQMNSLRAEDTAVYFCAKDKILWFGEPVFDYWGQGTLVTVSSASTKGPSVFPLAPSSKSTSGGTAALGCLVKDYFPEPVTVSWNSGALTSGVHTFPAVLQSSGLYSLSSVVTVPSSSLGTQTYICNVNHKPSNTKVDKKVEPKSCDKTHTCPPCPAPELLGGPSVFLFPPKPKDTLMISRTPEVTCVVVDVSHEDPEVKFNWYVDGVEVHNAKTKPREEQYQSTYRVVSVLTVLHQDWLNGKEYKCKVSNKALPAPIEKTISKAKGQPREPQVYTLPPCRDELTKNQVSLWCLVKGFYPSDIAVEWESNGQPENNYKTTPPVLDSDGSFFLYSKLTVDKSRWQQGNVFSCSVMHEALHNHYTQKSLSLSPGK
light: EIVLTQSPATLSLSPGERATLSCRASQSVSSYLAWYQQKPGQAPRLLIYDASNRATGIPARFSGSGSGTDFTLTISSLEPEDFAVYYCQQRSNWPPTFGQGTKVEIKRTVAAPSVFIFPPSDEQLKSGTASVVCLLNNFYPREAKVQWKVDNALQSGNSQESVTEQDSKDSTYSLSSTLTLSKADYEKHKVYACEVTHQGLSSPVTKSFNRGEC
notes: Comparative: anti-CD38 (Dara) Fab arm and anti-CD3 scFv (SP34)-Fc fusion peptide, CH2 N297Q
B5: Y150-F8-8 (bispecific antibody, human IgG1, kappa)
scFv: QVQLVESGGGVVQPGRSLRLSCAASGFTFSTYAMNWVRQAPGKGLEWVARIRSKYNNYATYYADSVKDRFTISRDDSKNTLYLQMNSLRAEDTAVYYCARHGNFGNSYVSWFAYWGQGTLVTVSSGGGGSGGGGSGGGGSQTVVTQEPSLTVSPGGTVTLTCRSSTGAVTTSNYANWVQQKPGQAPRGLIGGTNKRAPGVPARFSGSLLGGKAALTLSGVQPEDEAEYYCALWYSNLWVFGGGTKVEIKGRGRGSDKTHTCPPSPAPPVAGPSVFLFPPKPKDTLMISRTPEVTCVVVDVSHEDPEVQFNWYVDGVEVHNAKTKPREEQFNSTFRVVSVLTVVHQDWLNGKEYKCKVSNKGLPAPIEKTISKTKGQPREPQVCTLPPSRDELTKNQVSLSCAVKGFYPSDIAVEWESNGQPENNYKTTPPVLDSDGSFFLVSKLTVDKSRWQQGNVFSCSVMHEALHNHYTQKSLSLSPGK
heavy: EVQLLESGGGLVQPGGSLRLSCAVSGFTFNSFAMSWVRQAPGKGLEWVSAISGSGGGTYYADSVKGRFTISRDNSKNTLYLQMNSLRAEDTAVYFCAKDKILWFGEPVFDYWGQGTLVTVSSASTKGPSVFPLAPSSKSTSGGTAALGCLVKDYFPEPVTVSWNSGALTSGVHTFPAVLQSSGLYSLSSVVTVPSSSLGTQTYICNVNHKPSNTKVDKKVEPKSCDKTHTCPPSPAPPVAGPSVFLFPPKPKDTLMISRTPEVTCVVVDVSHEDPEVQFNWYVDGVEVHNAKTKPREEQFNSTFRVVSVLTVVHQDWLNGKEYKCKVSNKGLPAPIEKTISKTKGQPREPQVYTLPPCRDELTKNQVSLWCLVKGFYPSDIAVEWESNGQPENNYKTTPPVLDSDGSFFLYSKLTVDKSRWQQGNVFSCSVMHEALHNHYTQKSLSLSPGK
light: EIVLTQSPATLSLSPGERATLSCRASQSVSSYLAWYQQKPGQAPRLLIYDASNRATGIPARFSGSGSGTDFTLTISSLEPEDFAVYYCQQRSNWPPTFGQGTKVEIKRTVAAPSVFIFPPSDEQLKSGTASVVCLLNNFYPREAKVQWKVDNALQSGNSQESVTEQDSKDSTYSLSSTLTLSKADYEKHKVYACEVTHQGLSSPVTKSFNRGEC
notes: Anti-CD38 (Dara) Fab arm and anti-CD3 scFv (VH2a/VL5)-Fc fusion peptide, CH2 SG2

For this experiment, the target named is T1, monkey CD3 (monkey).
T1 construct: whole, on cells; also called CD3 on monkey CD3 positive T cells
The experiment can be described thus: flow cytometry on monkey CD3 positive T cells.
B1: the EC50 amounted to 29.2 nM.
In turn, B2 displayed an EC50 of 142 nM.
On to B3, for which the response was half-maximal at 152 nM (EC50).
Molecule B4 yielded an EC50 of 102 nM.
Take B5: the EC50 turned out to be 159 nM.

(Values after US20220041721A1 (WUHAN YZY BIOPHARMA, published 2022).)
